Drawing on US20220315645A1, this text covers IC50, in vitro HBV neutralization on HepG2-NTCP cells (ELISA read-out) and IC50, in vitro HBV neutralization on HepG2-NTCP cells (HBcAg immunofluorescence read-out) for one substance.

The target in this test is HBsAg on HBV virions (HBV from HepDE19 cell supernatant) (Hepatitis B virus). Nature of the test: cell-based or functional assay.

For libivirumab (antibody), the IC50, in vitro HBV neutralization on HepG2-NTCP cells (ELISA read-out) amounted to 0.035 µg/mL and the IC50, in vitro HBV neutralization on HepG2-NTCP cells (HBcAg immunofluorescence read-out) turned out to be 0.128 µg/mL.
